From the supplement of paper PMC5998384 come the findings set out here.

The subject of data set [1] is HeLa Kyoto. Description: thermal stability score vs G1/S (z-score of summed log2 fold changes over temperatures); higher = more thermally stable than in G1/S.
Data set [2] concerns HeLa Kyoto. In words: solubility in G1/S (NP-40 vs SDS abundance) (log2 ratio); higher = more soluble. The settings on record: cell cycle stage: G1/S.
Data set [3] relates to HeLa Kyoto. In words: melting temperature (median over replicates), in situ; higher = more thermally stable.
Data set [4] has as its system HeLa Kyoto. In words: solubility change mitosis vs G1/S (difference of NP-40 vs SDS log2 ratios) (log2 ratio difference); higher = more soluble in mitosis.
The mark [5] stands for this setting: cell cycle stage: early G1 (4.5 h after nocodazole release).
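Throughout, for melting temperature (median over replicates), in situ: HeLa Kyoto cells synchronized by double thymidine or nocodazole block, proteins quantified by TMT10plex mass spectrometry, three independent biological replicates.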
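Throughout, for solubility change mitosis vs G1/S (difference of NP-40 vs SDS log2 ratios): synchronized HeLa Kyoto cells (double thymidine block for G1/S, nocodazole release for mitosis), protein amounts in NP-40 versus SDS lysates quantified by mass spectrometry, three biological replicates.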
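Throughout, for solubility in G1/S (NP-40 vs SDS abundance): HeLa Kyoto cells arrested at G1/S by double thymidine block, proteins quantified by TMT10plex mass spectrometry in mild NP-40 versus SDS extracts, three biological replicates.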
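Throughout, for thermal stability score vs G1/S (z-score of summed log2 fold changes over temperatures): synchronized HeLa Kyoto cells, proteins quantified by TMT10plex mass spectrometry, three biological replicates, mitosis taken 0.5 h after nocodazole release, G1/S directly after double thymidine block.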

On to “MASTNAESQLQRIIRDLQDAVTELSKEFQEAGEPITDDSTSLHKFSYKLEYLLQFDQKEKATLLGNKKDYWDYFCACLAKVKGANDGIRFVKSISELRTSLGKGRAFIRYSLVHQRLADTLQQCFMNTKVTSDWYYARSPFLQPKLSSDIVGQLYELTEVQFDLASRGFDLDAAWPTFARRTLTTGSSAYLWKPPSRSSSMSSLVSSYLQTQEMVSNFDLNSPLNNEALEGFDEMRLELDQLEVREKQLRERMQQLDRENQELRAAVSQQGEQLQTERERGRTAAEDNVRLTCLVAELQKQWEVTQATQNTVKELQTCLQGLELGAAEKEEDYHTALRRLESMLQPLAQELEATRDSLDKKNQHLASFPGWLAMAQQKADTASDTKGRQEPIPSDAAQEMQELGEKLQALERERTKVEEVNRQQSAQLEQLVKELQLKEDARASLERLVKEMAPLQEELSGKGQEADQLWRRLQELLAHTSSWEEELAELRREKKQQQEEKELLEQEVRSLTRQLQFLETQLAQVSQHVSDLEEQKKQLIQDKDHLSQQVGMLERLAGPPGPELPVAGEKNEALVPVNSSLQEAWGKPEEEQRGLQEAQLDDTKVQEGSQEEELRQANRELEKELQNVVGRNQLLEGKLQALQADYQALQQRESAIQGSLASLEAEQASIRHLGDQMEASLLAVRKAKEAMKAQMAEKEAILQSKEGECQQLREEVEQCQQLAEARHRELRALESQCQQQTQLIEVLTAEKGQQGVGPPTDNEARELAAQLALSQAQLEVHQGEVQRLQAQVVDLQAKMRAALDDQDKVQSQLSMAEAVLREHKTLVQQLKEQNEALNRAHVQELLQCSEREGALQEERADEAQQREEELRALQEELSQAKCSSEEAQLEHAELQEQLHRANTDTAELGIQVCALTVEKERVEEALACAVQELQDAKEAASREREGLERQVAGLQQEKESLQEKLKAAKAAAGSLPGLQAQLAQAEQRAQSLQEAAHQELNTLKFQLSAEIMDYQSRLKNAGEECKSLRGQLEEQGRQLQAAEEAVEKLKATQADMGEKLSCTSNHLAECQAAMLRKDKEGAALREDLERTQKELEKATTKIQEYYNKLCQEVTNRERNDQKMLADLDDLNRTKKYLEERLIELLRDKDALWQKSDALEFQQKLSAEERWLGDTEANHCLDCKREFSWMVRRHHCRICGRIFCYYCCNNYVLSKHGGKKERCCRACFQKLSEGPGSPDSSGSGTSQGEPSPALSPASPGPQATGGQGANTDYRPPDDAVFDIITDEELCQIQESGSSLPETPTETDSLDPNAAEQDTTSTSLTPEDTEDMPVGQDSEICLLKSGELMIKVPLTVDEIASFGEGSRELFVRSSTYSLIPITVAEAGLTISWVFSSDPKSISFSVVFQEAEDTPLDQCKVLIPTTRCNSHKENIQGQLKVRTPGIYMLIFDNTFSRFVSKKVFYHLTVDRPVIYDGSDFL [FYCO1]”, for which the thermal stability score in the data set with HeLa Kyoto [1] (setting [5]) was -0.119; in the data set with HeLa Kyoto [1] (cell cycle stage: mitosis), 0.0455. Further, the “solubility in G1/S (log2)” value with HeLa Kyoto [2] came out at 0.0536. For the same sequence, the melting temperature with HeLa Kyoto [3] (cell cycle stage: G1/S) was 51.3 °C; in the data set with HeLa Kyoto [3] (cell cycle stage: mitosis), 51 °C. In addition, in the data set with HeLa Kyoto [4], the “solubility change mitosis (log2)” value is -0.142.

As for “MASYPSGSGKPKAKYPFKKRASLQASTAAPEARGGLGAPPLQSARSLPGPAPCLKHFPLDLRTSMDGKCKEIAEELFTRSLAESELRSAPYEFPEESPIEQLEERRQRLERQISQDVKLEPDILLRAKQDFLKTDSDSDLQLYKEQGEGQGDRSLRERDVLEREFQRVTISGEEKCGVPFTDLLDAAKSVVRALFIREKYMALSLQSFCPTTRRYLQQLAEKPLETRTYEQGPDTPVSADAPVHPPALEQHPYEHCEPSTMPGDLGLGLRMVRGVVHVYTRREPDEHCSEVELPYPDLQEFVADVNVLMALIINGPIKSFCYRRLQYLSSKFQMHVLLNEMKELAAQKKVPHRDFYNIRKVDTHIHASSCMNQKHLLRFIKRAMKRHLEEIVHVEQGREQTLREVFESMNLTAYDLSVDTLDVHADRNTFHRFDKFNAKYNPIGESVLREIFIKTDNRVSGKYFAHIIKEVMSDLEESKYQNAELRLSIYGRSRDEWDKLARWAVMHRVHSPNVRWLVQVPRLFDVYRTKGQLANFQEMLENIFLPLFEATVHPASHPELHLFLEHVDGFDSVDDESKPENHVFNLESPLPEAWVEEDNPPYAYYLYYTFANMAMLNHLRRQRGFHTFVLRPHCGEAGPIHHLVSAFMLAENISHGLLLRKAPVLQYLYYLAQIGIAMSPLSNNSLFLSYHRNPLPEYLSRGLMVSLSTDDPLQFHFTKEPLMEEYSIATQVWKLSSCDMCELARNSVLMSGFSHKVKSHWLGPNYTKEGPEGNDIRRTNVPDIRVGYRYETLCQELALITQAVQSEMLETIPEEAGITMSPGPQ [AMPD2]”, the thermal stability score in the data set with HeLa Kyoto [1] (setting [5]) is -0.578; in the data set with HeLa Kyoto [1] (cell cycle stage: mitosis), -2.37. In addition, the “solubility in G1/S (log2)” value in the data set with HeLa Kyoto [2] stood at 0.0591. The melting temperature was determined as 56.2 °C with HeLa Kyoto [3] (cell cycle stage: G1/S) and 55 °C with HeLa Kyoto [3] (cell cycle stage: mitosis). In the data set with HeLa Kyoto [4], the “solubility change mitosis (log2)” value was -0.181.

“MATAATIPSVATATAAALGEVEDEGLLASLFRDRFPEAQWRERPDVGRYLRELSGSGLERLRREPERLAEERAQLLQQTRDLAFANYKTFIRGAECTERIHRLFGDVEASLGRLLDRLPSFQQSCRNFVKEAEEISSNRRMNSLTLNRHTEILEILEIPQLMDTCVRNSYYEEALELAAYVRRLERKYSSIPVIQGIVNEVRQSMQLMLSQLIQQLRTNIQLPACLRVIGYLRRMDVFTEAELRVKFLQARDAWLRSILTAIPNDDPYFHITKTIEASRVHLFDIITQYRAIFSDEDPLLPPAMGEHTVNESAIFHGWVLQKVSQFLQVLETDLYRGIGGHLDSLLGQCMYFGLSFSRVGADFRGQLAPVFQRVAISTFQKAIQETVEKFQEEMNSYMLISAPAILGTSNMPAAVPATQPGTLQPPMVLLDFPPLACFLNNILVAFNDLRLCCPVALAQDVTGALEDALAKVTKIILAFHRAEEAAFSSGEQELFVQFCTVFLEDLVPYLNRCLQVLFPPAQIAQTLGIPPTQLSKYGNLGHVNIGAIQEPLAFILPKRETLFTLDDQALGPELTAPAPEPPAEEPRLEPAGPACPEGGRAETQAEPPSVGP [COG8]”: the thermal stability score in the data set with HeLa Kyoto [1] (setting [5]) stood at 0.73; in the data set on HeLa Kyoto [1] (cell cycle stage: mitosis), 1.67. In addition, the “solubility in G1/S (log2)” value in the data set on HeLa Kyoto [2] was -0.00808. The melting temperature with HeLa Kyoto [3] (cell cycle stage: G1/S) is 50.6 °C; with HeLa Kyoto [3] (cell cycle stage: mitosis) it was 48.4 °C. Moreover, the “solubility change mitosis (log2)” value in the data set on HeLa Kyoto [4] is -0.112.

For the sequence “MATAATSPALKRLDLRDPAALFETHGAEEIRGLERQVRAEIEHKKEELRQMVGERYRDLIEAADTIGQMRRCAVGLVDAVKATDQYCARLRQAGSAAPRPPRAQQPQQPSQEKFYSMAAQIKLLLEIPEKIWSSMEASQCLHATQLYLLCCHLHSLLQLDSSSSRYSPVLSRFPILIRQVAAASHFRSTILHESKMLLKCQGVSDQAVAEALCSIMLLEESSPRQALTDFLLARKATIQKLLNQPHHGAGIKAQICSLVELLATTLKQAHALFYTLPEGLLPDPALPCGLLFSTLETITGQHPAGKGTGVLQEEMKLCSWFKHLPASIVEFQPTLRTLAHPISQEYLKDTLQKWIHMCNEDIKNGITNLLMYVKSMKGLAGIRDAMWELLTNESTNHSWDVLCRRLLEKPLLFWEDMMQQLFLDRLQTLTKEGFDSISSSSKELLVSALQELESSTSNSPSNKHIHFEYNMSLFLWSESPNDLPSDAAWVSVANRGQFASSGLSMKAQAISPCVQNFCSALDSKLKVKLDDLLAYLPSDDSSLPKDVSPTQAKSSAFDRYADAGTVQEMLRTQSVACIKHIVDCIRAELQSIEEGVQGQQDALNSAKLHSVLFMARLCQSLGELCPHLKQCILGKSESSEKPAREFRALRKQGKVKTQEIIPTQAKWQEVKEVLLQQSVMGYQVWSSAVVKVLIHGFTQSLLLDDAGSVLATATSWDELEIQEEAESGSSVTSKIRLPAQPSWYVQSFLFSLCQEINRVGGHALPKVTLQEMLKSCMVQVVAAYEKLSEEKQIKKEGAFPVTQNRALQLLYDLRYLNIVLTAKGDEVKSGRSKPDSRIEKVTDHLEALIDPFDLDVFTPHLNSNLHRLVQRTSVLFGLVTGTENQLAPRSSTFNSQEPHNILPLASSQIRFGLLPLSMTSTRKAKSTRNIETKAQVVPPARSTAGDPTVPGSLFRQLVSEEDNTSAPSLFKLGWLSSMTK [COG1]”, the figures for the thermal stability score in the data set on HeLa Kyoto [1] (setting [5]) and in the data set on HeLa Kyoto [1] (cell cycle stage: mitosis) were -0.0852 and 0.918, respectively. Further, the “solubility in G1/S (log2)” value with HeLa Kyoto [2] was -0.122. Besides, the values for the melting temperature with HeLa Kyoto [3] (cell cycle stage: G1/S) and with HeLa Kyoto [3] (cell cycle stage: mitosis) were 49.8 °C and 49.4 °C, respectively. Further, the “solubility change mitosis (log2)” value with HeLa Kyoto [4] was determined as 0.0588.
